B1: N-His6-GFP-BAX α2–α5 (53–128), C62S/C126S (domain or fragment, human, UniProt Q07812 53-128, looked up)
chain: DASTKKLSESLKRIGDELDSNMELQRMIAAVDTDSPREVFFRVAADMFSDGNFNWGRVVALFYFASKLVLKALSTK
notes: BAX α2–α5 truncate, residues 53–128, human; also called BAX α2–α5 WT; wild-type BAX α2–α5; source: E. coli, purified (Ni-NTA, SEC Superdex S-200); not shown: His6, N-terminal, kept; GFP, N-terminal, kept
B2: GFP-BAX α2–α5 F116A (domain or fragment, human, UniProt Q07812 53-128, looked up)
chain: DASTKKLSESLKRIGDELDSNMELQRMIAAVDTDSPREVFFRVAADMFSDGNFNWGRVVALFYAASKLVLKALSTK
notes: BAX α2–α5 truncate, residues 53–128, human; source: E. coli, purified (Ni-NTA, SEC Superdex S-200); not shown: His6, N-terminal, kept; GFP, N-terminal, kept
B3: GFP-BAX α2–α5 Y115A (domain or fragment, human, UniProt Q07812 53-128, looked up)
chain: DASTKKLSESLKRIGDELDSNMELQRMIAAVDTDSPREVFFRVAADMFSDGNFNWGRVVALFAFASKLVLKALSTK
notes: as for B2
B4: GFP-BAX α2–α5 F114A/Y115A/F116A (domain or fragment, human, UniProt Q07812 53-128, looked up)
chain: DASTKKLSESLKRIGDELDSNMELQRMIAAVDTDSPREVFFRVAADMFSDGNFNWGRVVALAAAASKLVLKALSTK
notes: BAX α2–α5 truncate, residues 53–128, human; also called triple alanine mutant F114A/Y115A/F116A; source: E. coli, purified (Ni-NTA, SEC Superdex S-200); not shown: His6, N-terminal, kept; GFP, N-terminal, kept
B5: GFP-BAX α2–α5 F114A/Y115A (domain or fragment, human, UniProt Q07812 53-128, looked up)
chain: DASTKKLSESLKRIGDELDSNMELQRMIAAVDTDSPREVFFRVAADMFSDGNFNWGRVVALAAFASKLVLKALSTK
notes: BAX α2–α5 truncate, residues 53–128, human; also called double alanine mutant; source: E. coli, purified (Ni-NTA, SEC Superdex S-200); not shown: His6, N-terminal, kept; GFP, N-terminal, kept
B6: GFP-BAX α2–α5 L113A (domain or fragment, human, UniProt Q07812 53-128, looked up)
chain: DASTKKLSESLKRIGDELDSNMELQRMIAAVDTDSPREVFFRVAADMFSDGNFNWGRVVAAFYFASKLVLKALSTK
notes: as for B2
B7: GFP-BAX α2–α5 Y115A/F116A (domain or fragment, human, UniProt Q07812 53-128, looked up)
chain: DASTKKLSESLKRIGDELDSNMELQRMIAAVDTDSPREVFFRVAADMFSDGNFNWGRVVALFAAASKLVLKALSTK
notes: as for B5
B8: GFP-BAX α2–α5 F114A (domain or fragment, human, UniProt Q07812 53-128, looked up)
chain: DASTKKLSESLKRIGDELDSNMELQRMIAAVDTDSPREVFFRVAADMFSDGNFNWGRVVALAYFASKLVLKALSTK
notes: as for B2
B9: GFP-BAX α2–α5 L113A/F114A (domain or fragment, human, UniProt Q07812 53-128, looked up)
chain: DASTKKLSESLKRIGDELDSNMELQRMIAAVDTDSPREVFFRVAADMFSDGNFNWGRVVAAAYFASKLVLKALSTK
notes: as for B5
B10: GFP-BAX α2–α5 F114A/F116A (domain or fragment, human, UniProt Q07812 53-128, looked up)
chain: DASTKKLSESLKRIGDELDSNMELQRMIAAVDTDSPREVFFRVAADMFSDGNFNWGRVVALAYAASKLVLKALSTK
notes: as for B5
B11: GFP-BAX α2–α5 L113A/Y115A/F116A (domain or fragment, human, UniProt Q07812 53-128, looked up)
chain: DASTKKLSESLKRIGDELDSNMELQRMIAAVDTDSPREVFFRVAADMFSDGNFNWGRVVAAFAAASKLVLKALSTK
notes: BAX α2–α5 truncate, residues 53–128, human; also called triple alanine mutant L113A/Y115A/F116A; source: E. coli, purified (Ni-NTA, SEC Superdex S-200); not shown: His6, N-terminal, kept; GFP, N-terminal, kept
B12: GFP-BAX α2–α5 L113A/Y115A (domain or fragment, human, UniProt Q07812 53-128, looked up)
chain: DASTKKLSESLKRIGDELDSNMELQRMIAAVDTDSPREVFFRVAADMFSDGNFNWGRVVAAFAFASKLVLKALSTK
notes: as for B5
B13: GFP-BAX α2–α5 L113A/F116A (domain or fragment, human, UniProt Q07812 53-128, looked up)
chain: DASTKKLSESLKRIGDELDSNMELQRMIAAVDTDSPREVFFRVAADMFSDGNFNWGRVVAAFYAASKLVLKALSTK
notes: as for B5
B14: GFP-BAX α2–α5 L113A/F114A/Y115A (domain or fragment, human, UniProt Q07812 53-128, looked up)
chain: DASTKKLSESLKRIGDELDSNMELQRMIAAVDTDSPREVFFRVAADMFSDGNFNWGRVVAAAAFASKLVLKALSTK
notes: BAX α2–α5 truncate, residues 53–128, human; also called triple BAX α2–α5 mutant L113A/F114A/Y115A; source: E. coli, purified (Ni-NTA, SEC Superdex S-200); not shown: His6, N-terminal, kept; GFP, N-terminal, kept
B15: GFP-BAX α2–α5 L113A/F114A/F116A (domain or fragment, human, UniProt Q07812 53-128, looked up)
chain: DASTKKLSESLKRIGDELDSNMELQRMIAAVDTDSPREVFFRVAADMFSDGNFNWGRVVAAAYAASKLVLKALSTK
notes: BAX α2–α5 truncate, residues 53–128, human; also called triple BAX α2–α5 mutant L113A/F114A/F116A; source: E. coli, purified (Ni-NTA, SEC Superdex S-200); not shown: His6, N-terminal, kept; GFP, N-terminal, kept

Biological target: the molecule itself
Experiment: SEC; N-His6-GFP-BAX α2–α5 proteins, Superdex S-200, TBS; the dimer is observed as a GFP-mediated dimer/oligomer of dimers

Binding result, binds:
B1, B2, B3, B4, B5, B6, B7, B8, B9, B10, B11, B12, B13, B14, B15

Source: PMC8363748, “The conformational stability of pro-apoptotic BAX is dictated by discrete residues of the protein core” (Nature Communications, 2021)
